Measurements as given in PMC3128695, “A Lower-Order Oligomer Form of Phage Shock Protein A (PspA) Stably Associates with the Hexameric AAA^+ Transcription Activator Protein PspF for Negative Regulation” (Journal of Molecular Biology, 2009).

B1: His-PspA(68–110) (HD2) (domain or fragment)
chain: not shown
notes: PspA, E. coli, residues 68-110 (HD2); Cloned NdeI-BamHI into pET28b+, which should give an N-terminal His tag as for the other fragments (surmised); a start codon was added by the forward primer; source: pET28b+-based plasmid pGJ52
B2: His-PspA(1–110) (HD1–HD2) (domain or fragment)
chain: not shown
B3: His-PspA(68–186) (HD2–HD3) (domain or fragment)
chain: not shown
B4: His-PspA(68–222) (HD2–HD3–HD4) (domain or fragment)
chain: not shown

Biological target: the molecule itself
Test: SEC; single proteins alone: 50-μl samples of 30 μM PspAFL or PspA fragments (20 μM PspF1–275), Superose 6, 4 °C, 20 mM Tris–HCl pH 8.0, 50 mM NaCl, 15 mM MgCl2; apparent oligomeric forms from calibration with globular proteins

Protein | stoichiometry N
B1 | 2 subunits
B2 | 2 subunits
B3 | 6 subunits
B4 | 6 subunits
